From publication PMC10783015

Legend:
[1] = target: T1, CRP (Salmonella enterica serovar Typhimurium ATCC 14028) (UniProt P0A2T6); experiment: SPR; conditions: EMSA: 100 ng DNA in 1x TBE, 20 uL, 45 min at room temperature, 12% native PAGE, PargS competitor, 20 uM cAMP for CRP; SPR: streptavidin chip with biotinylated …
T1 sequence: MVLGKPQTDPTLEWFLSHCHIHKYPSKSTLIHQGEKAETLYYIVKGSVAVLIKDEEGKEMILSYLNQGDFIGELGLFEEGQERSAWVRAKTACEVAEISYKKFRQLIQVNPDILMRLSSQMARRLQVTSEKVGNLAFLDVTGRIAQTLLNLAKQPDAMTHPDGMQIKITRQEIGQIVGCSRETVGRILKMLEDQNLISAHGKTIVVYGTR

[2] = target: T2, H-NS (Salmonella enterica serovar Typhimurium ATCC 14028) (UniProt P0A1S2); experiment: SPR; conditions: EMSA: 100 ng DNA in 1x TBE, 20 uL, 45 min at room temperature, 12% native PAGE, PargS competitor, 20 uM cAMP for CRP; SPR: streptavidin chip with biotinylated …
T2 sequence: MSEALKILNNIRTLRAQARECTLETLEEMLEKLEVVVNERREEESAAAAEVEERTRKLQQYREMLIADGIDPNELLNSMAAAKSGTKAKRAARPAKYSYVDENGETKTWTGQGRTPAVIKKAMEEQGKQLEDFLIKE

Row | Sequence | binding [1] | binding [2] | Kd [1]
1 | CTTATGTCGGTCATTGCCGTAGCGCTGCCGACGATCTTATAGCTATTGAGAACTCTCGTTTCACAACCTATGTTTTAATTTCAAAACGATCAATAATGAAACTTATGTTTTGTTATGGGTATCACATTTCGAATTTCATAATCCTGGCGTTTTTTATCGTT (double strand) [PiolT1 SPR] | no binding | – | –
2 | AAGAGCCTGAATATTCACCGGAATACCTTACGTTTATGAAGCGGGCTGTATTGCCCGCGCCAGTTTAAGAATTAGGGCGGGAGTATACTGCAAATGCCCGTTGGCGTCAGCATTGCGCGCGCGGCGCGTCGCCTGAAATATACGCAACAATAATCTGCATAAGCATTCAATAAACGCCCAATCAAATCAAAGGTTG (double strand) [PargS SPR] | – | no binding | 1 nM
